Test results as given in publication PMC10346447.

Target: AvrLm10B_like2‐RFP (Leptosphaeria maculans 'brassicae')
Experiment: FRET or BRET

In the case of AvrLm10A_like2‐GFP (natural protein), the FRET efficiency E was 32.1% and the donor (GFP) mean fluorescence lifetime τ with the acceptor was 1.89 ns.
